Common to all, as to assay: crystal structure
Test [1] concerns the target T1, EphA4 ectodomain (EphA4_(ecto)), human (human, UniProt P54764 20-547).
Test [2] has as its target lysine-methylated EphA4 ectodomain (EphA4_(ecto)), human (human, UniProt P54764 20-547, lysine-methylated).
Test [3] has as its target T1, EphA4 ectodomain (EphA4_(ecto)), human. This is another data set of the same source.

Read-outs that look alike come from different tables or passages of the source.

T1 sequence (P54764 20-547): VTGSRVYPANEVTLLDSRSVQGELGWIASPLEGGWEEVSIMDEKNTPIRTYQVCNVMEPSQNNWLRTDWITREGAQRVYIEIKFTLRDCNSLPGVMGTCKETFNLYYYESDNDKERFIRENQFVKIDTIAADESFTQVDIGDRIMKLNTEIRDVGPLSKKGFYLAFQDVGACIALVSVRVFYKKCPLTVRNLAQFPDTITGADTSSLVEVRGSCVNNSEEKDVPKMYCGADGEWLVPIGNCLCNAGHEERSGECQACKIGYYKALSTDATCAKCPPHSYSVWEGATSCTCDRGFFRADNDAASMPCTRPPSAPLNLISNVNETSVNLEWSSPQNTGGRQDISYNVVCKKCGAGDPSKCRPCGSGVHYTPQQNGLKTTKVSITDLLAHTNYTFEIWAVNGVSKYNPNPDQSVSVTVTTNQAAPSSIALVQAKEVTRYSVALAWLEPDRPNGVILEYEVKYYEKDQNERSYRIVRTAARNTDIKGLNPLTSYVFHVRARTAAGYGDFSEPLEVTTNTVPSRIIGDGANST
Sequence of lysine-methylated EphA4 ectodomain (EphA4_(ecto)), human (P54764 20-547): as above

B1: ephrinB3 receptor-binding domain (RBD), human (domain or fragment)
chain: GLSLEPVYWNSANKRFQAEGGYVLYPQIGDRLDLLCPRARPPGPHSSPNYEFYKLYLVGGAQGRRCEAPPAPNLLLTCDRPDLDLRFTIKFQEYSPNLWGHEFRSHHDYYIIATSDGTREGLESLQGGVCLTRGMKVLLRVGQ
For the molecule B1, the binding result in test [1] is on record as “binds”.

B2: ephrinA5 receptor-binding domain (RBD), human, of the lysine-methylated complex sample (domain or fragment)
chain: AVADRYAVYWNSSNPRFQRGDYHIDVCINDYLDVFCPHYEDSVPEDKTERYVLYMVNFDGYSACDHTSKGFKRWECNRPHSPNGPLKFSEKFQLFTPFSLGFEFRPGREYFYISSAIPDNGRRSCLKLKVFVRPTNSCMK
modifications: lysine-methylated (the paper calls the EphA4_(ecto)-ephrinA5 RBD complex sample lysine-methylated)
For the molecule B2, in test [2], the binding result is reported as “binds”.

B3: ephrinA5 receptor-binding domain (RBD), human (domain or fragment)
chain: B2 chain
On to B3, for which, in test [3], the binding result was “binds”.

The values above are taken from PMC3941021 (Nature structural & molecular biology, 2013).
